# Laboratory results as given in patent publication US20250064890A1, “PROTEIN COMPOSITIONS FOR THE TREATMENT OF INFLAMMATORY DISEASES” (Unichem Laboratories Limited, priority 2021, published 2025).
# Read-outs that look alike come from different tables or passages of the source.
# B1: EGF: positive control (PC-1 in Tables 4, 6, 8) in the radiation damage tests (protein, UniProt P01133 23-1207, looked up)
# Pro-epidermal growth factor: PQHWSCPEGTLAGNGNSTCVGPAPFLIFSHGNSIFRIDTEGTNYEQLVVDAGVSVIMDFHYNEKRIYWVDLERQLLQRVFLNGSRQERVCNIEKNVSGMAINWINEEVIWSNQQEGIITVTDMKGNNSHILLSALKYPANVAVDPVERFIFWSSEVAGSLYRADLDGVGVKALLETSEKITAVSLDVLDKRLFWIQYNREGSNSLICSCDYDGGSVHISKHPTQHNLFAMSLFGDRIFYSTWKMKTIWIANKHTGKDMVRINLHSSFVPLGELKVVHPLAQPKAEDDTWEPEQKLCKLRKGNCSSTVCGQDLQSHLCMCAEGYALSRDRKYCEDVNECAFWNHGCTLGCKNTPGSYYCTCPVGFVLLPDGKRCHQLVSCPRNVSECSHDCVLTSEGPLCFCPEGSVLERDGKTCSGCSSPDNGGCSQLCVPLSPVSWECDCFPGYDLQLDEKSCAASGPQPFLLFANSQDIRHMHFDGTDYGTLLSQQMGMVYALDHDPVENKIYFAHTALKWIERANMDGSQRERLIEEGVDVPEGLAVDWIGRRFYWTDRGKSLIGRSDLNGKRSKIITKENISQPRGIAVHPMAKRLFWTDTGINPRIESSSLQGLGRLVIASSDLIWPSGITIDFLTDKLYWCDAKQSVIEMANLDGSKRRRLTQNDVGHPFAVAVFEDYVWFSDWAMPSVMRVNKRTGKDRVRLQGSMLKPSSLVVVHPLAKPGADPCLYQNGGCEHICKKRLGTAWCSCREGFMKASDGKTCLALDGHQLLAGGEVDLKNQVTPLDILSKTRVSEDNITESQHMLVAEIMVSDQDDCAPVGCSMYARCISEGEDATCQCLKGFAGDGKLCSDIDECEMGVPVCPPASSKCINTEGGYVCRCSEGYQGDGIHCLDIDECQLGEHSCGENASCTNTEGGYTCMCAGRLSEPGLICPDSTPPPHLREDDHHYSVRNSDSECPLSHDGYCLHDGVCMYIEALDKYACNCVVGYIGERCQYRDLKWWELRHAGHGQQQKVIVVAVCVVVLVMLLLLSLWGAHYYRTQKLLSKNPKNPYEESSRDVRSRRPADTEDGMSSCPQPWFVVIKEHQDLKNGGQPVAGEDGQAADGSMQPTSWRQEPQLCGMGTEQGCWIPVSSDKGSCPQVMERSFHMPSYGTQTLEGGVEKPHSLLSANPLWQQRALDPPHQMELTQ
# modifications: Pro-epidermal growth factor
# Experiments:
# Type in all cases: cell-based, human
# [1] = tested on: oral (buccal) mucosa cells (TR146)
# Experimental: The protective effect of the recombinant lectin on survival of TR146 cells against 5-FU induced damage was determined using following calculations:
# The viability of cells was determined as: % Cell viability=(100−% Cytotoxicity); • where, the percentage cytotoxicity corresponding to each treatment was calculated as: % Cytotoxicity=[(R−X)/R]*100, wherein X=Absorbance of cells treated with 5-FU or radiation damage/TI+5-FU, R=Absorbance of Control cells (Untreated) and Percentage protection was calculated as:
# {(Absorbance of TI+5-FU or radiation)−(Absorbance of 5-FU or radiation alone)/(Absorbance of Untreated)−(Absorbance of 5-FU alone)}*100
# [2] = tested on: oral (buccal) mucosa cells (TR146); assay: Restoration of mitochondrial membrane potential (JC-1) against radiation induced damage; settings: for MMP: red/green JC-1 fluorescence ratio
# Experimental: (§1) Oral buccal mucosal cells (TR146) were incubated overnight in 5% CO2 incubator at 37° C. for 24 h. […] After 24 h of treatment, cells were exposed to damage (5-FU 5 mM) for 1.25 h for chemotherapy induced inflammation and exposed to gamma radiation (3.5 kGy) using Cobalt 60 for radiation induced inflammation. After the exposure, the anti-apoptotic effect of SEQ ID NO 2 was determined by restoration of mitochondrial membrane depolarization by JC-1 staining and reduction in apoptotic cell populations (Annexin positive and subG0/G1 cells in cell cycle analysis).
# After incubation, the supernatants were discarded and 100 μl of JC1-dye solution (prepared by diluting 1 mM DMSO stock into 10 μM in 1×PBS) was added to each well. The cells were then incubated with the dye in CO2 incubator at 37° C. for 15 min, after which the supernatant was removed, and the cells were washed twice with 1×PBS. 100 μl of 1×PBS was finally added to each well. Red fluorescence (excitation 550 nm, emission 600 nm) and green fluorescence (excitation 485 nm, emission 535 nm) were measured using Biotek Synergy HT plate reader. The mitochondrial membrane potential (Δψm) was calculated as the ratio of intensity of red fluorescence to intensity of green fluorescence.
# The percentage increase/restoration in mitochondrial membrane potential (MMP) was calculated as: % Increase=[(R−X)/R]*100 • Where, X=Δψm corresponding to TI+5-FU treated cells or TI+radiation treated cells; R=Δψm corresponding to control cells (FU damaged or Radiation damaged alone)
# [3] = tested on: oral (buccal) mucosa cells (TR146); assay: Annexin positive cell population against radiation damage; settings: for % Apoptotic cells: Annexin positive
# Experimental: as §1
# To determine the reduction in apoptotic cell populations using annexin-v staining cells were gently harvested into pre-labeled sterile centrifuge tubes and centrifuged at 300×g for 5-7 min. Supernatant were discarded and the pellet was resuspended in 200 μl of fresh culture medium. 100 μl of cell suspension was transferred into pre-labeled sterile centrifuge tubes. 100 μl of Annexin-V reagent was added to each tube and incubated for 30 min at RT in dark. Cells stained for Annexin-V were then transferred into 96-well plates and acquired on flow cytometer (Guava technologies). Percentage of Annexin-V positive cells was calculated as follows:
# ={[% Annexin positive cells in 5-FU or radiation alone]−[% Annexin positive cells in (TI+5-FU) or (TI+radiation)]/% Annexin positive cells in 5-FU or radiation alone}*100
# [4] = tested on: oral (buccal) mucosa cells (TR146); assay: Sub(G0/G1) cell population (cell cycle) against radiation induced damage; settings: for % Decrease in Apoptotic cells (with respect to control): Sub G0/G1
# Experimental: To determine the effect of test item on cell cycle, oral buccal mucosal cells (TR146) were incubated overnight in 5% CO2 incubator at 37° C. for 24 h. […] After 24 h of treatment, cells were exposed to chemotherapy (5-FU 10 mM) for 24 h or radiotherapy (Gamma radiation (3.5 kGy) using Cobalt 60) for 2 h.
# After incubation, cells were harvested by trypsinization and processed for Cell cycle assay. Accordingly, cells were harvested into prelabeled centrifuge tubes and centrifuged at 450 g for 5 min at room temperature (RT, low brake). The supernatants were removed carefully and discarded. 1 ml of 1× phosphate buffer saline (PBS) was added to the pellet and resuspended gently to make homogenous suspension. Cells were centrifuged at 450 g for 5 min, RT (low brake). The supernatant was carefully removed leaving behind approx. 100 μl of PBS. Cells were resuspended gently yet thoroughly in residual PBS. Ice-cold 70% ethanol (100 μl) was added drop-wise into cells in each tube while vortexing at low speed (fixation step). Cells stored at 4° C. for 24 h were centrifuged at 450 g for 5 min, RT (low brake). The supernatant was carefully removed without touching the pellet and discarded. 1 ml of 1×PBS was added into pellet and resuspended gently. Cells were incubated for 1 minute at RT. Cells were centrifuged at 450 g for 5 min, RT (low brake). The supernatant was removed carefully without touching the pellet, leaving behind approx. 20-50 μl of PBS. 200 μl of cell cycle reagent was added into each tube. Cells were resuspended gently and mixed. Cells were incubated for 30 min at RT in the dark. The stained samples were transferred into 96-well plates and acquired on flow cytometer (Guava technologies). Percentage of cells in Sub (G0/G1) phase were determined based on the concept that cell cycle reagent contains PI stain, which stains DNA of cells in different phases of cell cycle; Sub (G0/G1), G1, S, G2 and M. Cells in Sub (G0/G1) phase correspond to apoptotic cells. Percent inhibition in apoptotic cells is determined by the formula:
# =[(% Sub(G0/G1) cells in 5-FU/radiation alone)−(% Sub(G0/G1) cells in TI+5-FU/radiation)/% Sub(G0/G1) cells in 5-FU/radiation alone]*100
# [5] = 100 ng/ml + Radiation (3.5 kGy)
# [6] = 200 ng/ml + Radiation (3.5 kGy)
molecule,measurement,setting,value
B1,% Protection,[1]; 10 ng/ml + Radiation (3.5 kGy),18%
same,% Protection,[1]; 50 ng/ml + Radiation (3.5 kGy),44.4%
same,% Protection,[1]; [5],46.5%
same,% Protection,[1]; [6],8.8%
same,% Increase in MMP (with respect to control),[2]; 50 ng/ml + Radiation (3.5 kGy),41.8%
same,MMP,[2]; 50 ng/ml + Radiation (3.5 kGy),6.53
same,% Increase in MMP (with respect to control),[2]; [5],33.4%
same,MMP,[2]; [5],6.14
same,% Increase in MMP (with respect to control),[2]; [6],18.8%
same,MMP,[2]; [6],5.47
same,% Decrease in Apoptotic cells (with respect to radiation control),[3]; 50 ng/ml + Radiation (3.5 kGy),0%
same,% Apoptotic cells,[3]; 50 ng/ml + Radiation (3.5 kGy),13.7%
same,% Decrease in Apoptotic cells (with respect to radiation control),[3]; [5],35.9%
same,% Apoptotic cells,[3]; [5],8.8%
same,% Decrease in Apoptotic cells (with respect to radiation control),[3]; [6],−1.5%
same,% Apoptotic cells,[3]; [6],13.9%
same,% Apoptotic cells (Sub G0/G1),[4]; 50 ng/ml + Radiation (3.5 kGy),10.8%
same,% Decrease in Apoptotic cells (with respect to control),[4]; 50 ng/ml + Radiation (3.5 kGy),69.5%
same,% Apoptotic cells (Sub G0/G1),[4]; [5],16.4%
same,% Decrease in Apoptotic cells (with respect to control),[4]; [5],53.5%
same,% Apoptotic cells (Sub G0/G1),[4]; [6],30.5%
same,% Decrease in Apoptotic cells (with respect to control),[4]; [6],13.7%
